Results reported in US20160168210A1, “DERIVATIVES OF COLLAGEN-BINDING HAIRPIN PEPTIDES” (NATIONAL RESEARCH COUNCIL OF CANADA, priority 2012, published 2016).
Entries after “also recorded” stand apart in the source; their conditions may differ. Where no end group is shown, it is not given here.

What was measured:
[1] = target: T1, rat-tail collagen type I (Rattus norvegicus, UniProt P02454+P02466); test: Collagen fibril alignment of hydrogels formed from peptide-collagen solutions, deuterium NMR (deuterium coupling constant); type: binding; design: rat-tail collagen type I (at 4 mg/ml in 0.02 N acetic acid); purchased BD Bioscience; host or cells: rat tail (tissue-derived)
T1 sequence (P02454 152-1207 limits assumed): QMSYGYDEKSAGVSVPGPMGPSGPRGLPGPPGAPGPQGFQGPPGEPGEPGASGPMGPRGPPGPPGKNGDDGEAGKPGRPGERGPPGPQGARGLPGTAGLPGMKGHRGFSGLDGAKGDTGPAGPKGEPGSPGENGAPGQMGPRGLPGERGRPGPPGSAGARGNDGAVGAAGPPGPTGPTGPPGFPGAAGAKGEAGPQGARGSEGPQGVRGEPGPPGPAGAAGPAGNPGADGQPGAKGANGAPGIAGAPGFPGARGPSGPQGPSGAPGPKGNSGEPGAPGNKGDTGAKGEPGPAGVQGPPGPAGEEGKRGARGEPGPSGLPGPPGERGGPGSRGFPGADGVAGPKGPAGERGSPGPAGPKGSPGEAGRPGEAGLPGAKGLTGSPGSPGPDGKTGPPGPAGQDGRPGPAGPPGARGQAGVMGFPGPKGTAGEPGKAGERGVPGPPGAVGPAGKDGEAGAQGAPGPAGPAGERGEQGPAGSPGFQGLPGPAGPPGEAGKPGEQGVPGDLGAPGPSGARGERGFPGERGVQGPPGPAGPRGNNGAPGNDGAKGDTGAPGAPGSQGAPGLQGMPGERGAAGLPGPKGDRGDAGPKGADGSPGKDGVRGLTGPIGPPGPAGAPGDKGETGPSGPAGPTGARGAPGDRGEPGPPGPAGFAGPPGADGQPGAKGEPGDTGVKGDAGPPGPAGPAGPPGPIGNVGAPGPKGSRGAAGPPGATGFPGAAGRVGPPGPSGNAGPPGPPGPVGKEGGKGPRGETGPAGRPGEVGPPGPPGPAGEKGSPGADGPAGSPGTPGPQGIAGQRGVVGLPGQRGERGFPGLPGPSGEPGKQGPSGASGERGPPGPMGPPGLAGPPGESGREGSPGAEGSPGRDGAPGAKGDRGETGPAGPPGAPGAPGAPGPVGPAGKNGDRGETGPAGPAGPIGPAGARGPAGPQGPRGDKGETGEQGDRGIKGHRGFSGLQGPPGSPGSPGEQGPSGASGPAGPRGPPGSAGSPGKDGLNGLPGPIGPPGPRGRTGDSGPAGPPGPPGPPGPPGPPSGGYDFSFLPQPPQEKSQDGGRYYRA
T1 sequence (P02466 86-1125 limits assumed): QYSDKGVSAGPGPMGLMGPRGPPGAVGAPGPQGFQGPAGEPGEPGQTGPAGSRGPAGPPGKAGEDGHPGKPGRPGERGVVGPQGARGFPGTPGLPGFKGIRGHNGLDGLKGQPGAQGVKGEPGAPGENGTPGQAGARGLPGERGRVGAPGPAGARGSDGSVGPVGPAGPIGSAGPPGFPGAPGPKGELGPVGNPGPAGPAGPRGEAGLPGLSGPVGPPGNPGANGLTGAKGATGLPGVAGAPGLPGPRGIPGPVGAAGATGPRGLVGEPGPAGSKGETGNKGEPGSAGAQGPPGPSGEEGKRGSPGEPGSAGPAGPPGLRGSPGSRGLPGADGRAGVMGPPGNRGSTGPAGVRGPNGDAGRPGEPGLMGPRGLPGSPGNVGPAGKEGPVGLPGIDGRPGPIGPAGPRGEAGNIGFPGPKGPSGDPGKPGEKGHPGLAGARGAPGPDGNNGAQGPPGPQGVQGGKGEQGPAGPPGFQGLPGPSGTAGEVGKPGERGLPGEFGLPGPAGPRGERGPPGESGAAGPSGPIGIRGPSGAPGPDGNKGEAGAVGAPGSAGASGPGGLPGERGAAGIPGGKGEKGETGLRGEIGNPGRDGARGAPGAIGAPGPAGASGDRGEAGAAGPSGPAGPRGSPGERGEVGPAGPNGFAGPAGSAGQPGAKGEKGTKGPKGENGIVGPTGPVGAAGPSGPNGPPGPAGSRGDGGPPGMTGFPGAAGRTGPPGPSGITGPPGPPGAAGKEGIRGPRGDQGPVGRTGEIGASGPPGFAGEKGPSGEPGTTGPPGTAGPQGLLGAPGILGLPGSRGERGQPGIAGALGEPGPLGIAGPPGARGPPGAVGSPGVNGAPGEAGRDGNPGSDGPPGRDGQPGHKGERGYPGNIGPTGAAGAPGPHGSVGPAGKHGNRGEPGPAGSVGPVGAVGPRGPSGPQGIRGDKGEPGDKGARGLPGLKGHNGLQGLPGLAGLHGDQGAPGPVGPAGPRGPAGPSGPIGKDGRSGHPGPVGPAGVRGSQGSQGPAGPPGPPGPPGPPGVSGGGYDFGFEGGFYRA
Protocol: Rat collagen hydrogels were prepared using rat-tail collagen type I (at 4 mg/ml in 0.02 N acetic acid) from BD Bioscience. A volume of 200 μL of the concentrated collagen solution was mixed with an equal volume of a buffer solution that was 400 mM in Tris-HCl and 400 mM in NaCl with a pH of 7.6 and with 50 μL of deuterated water (D2O). The sample mixture was transferred to an NMR tube followed by gentle mixing under agitation using a Thermolyne™ Max Mix-II apparatus. The NMR tube containing the collagen solution was placed within the RF probe housed in a 500 MHz super-conducting magnet (Bruker Avance-500 NMR spectrometer). The probe and sample bulk temperature was kept at 277 K for 3 hours and then elevated to 310 K at a rate of 1 degree/10 min to enable fibril alignment during a slow process of collagen gelation under the influence of the magnetic field (Ma 2008). The degree of fibril alignment of the collagen hydrogels was determined by use of deuterium NMR spectroscopy of the added D2O as described (Ma 2008).
Deuterium NMR spectroscopy studies of collagen responsiveness (and/or binding) for each peptide were carried out using a volume of (400-X) μL of a peptide dissolved in pure water mixed with 50 μL of a 10×PBS (phosphate-buffered saline) supplemented by sodium phosphate to a final concentration of 50 mM, with 50 μL of deuterated water (D2O) to form the reference sample (where X=0), or the peptide-collagen complex with X μL of rat-tail collagen type I (at 3.6 to 4 mg/ml in 0.02 N acetic acid from BD Bioscience) adjusted to achieve the desired final concentration of collagen. The pH value of the reference peptide samples was adjusted to match the pH of the final peptide-collagen complex in order to facilitate NMR spectral comparison. The peptide-collagen solutions were also subjected to gelation under magnetic field guidance followed by the measurement of fibril alignment (Ma 2008) as a semi-quantitative indication of peptide-collagen binding. Deuterium coupling constants measuring the degree of collagen fibril alignment were reduced by more than 1.0 Hz for MH2-wZIP4, by less than 0.5 Hz for MH2-wZIP6 and MH2-wZIP5, which parallel those observed for trpzip4, trpzip6, trpzip5 and the gb1 peptide (see Example 4). As a comparison, a solution of rat collagen at a concentration of 1.8 mg/ml in 200 mM Tris-Cl/200 mM NaCl at pH 7.6 formed a partially-aligned hydrogel with a deuterium coupling constant (Ma, 2008) of 2.5 Hz, while a solution of rat collagen at a concentration of 3 mg/ml in PBS (137 mM NaCl/2.68 mM KCl/10.1 mM Na2HPO4/1.76 mM KH2PO4) supplemented with Na2HPO4 to achieve a final concentration of 50 mM at pH 7.4 formed a partially-aligned hydrogel with a deuterium coupling constant of 4.8 Hz. […]

[2] = as reported previously (Blanco 1994; Cochran 2001b); cited from earlier work
[3] = target: T1, rat-tail collagen type I; test: Collagen binding/responsiveness of peptides by proton NMR and H-15N HSQC spectroscopy; design: rat-tail collagen type I (at 4 mg/ml in 0.02 N acetic acid); purchased BD Bioscience; host or cells: rat tail (tissue-derived); settings: for response to / binding of collagen (NMR spectral perturbations): peptide free in solution vs in the presence of collagen; for NMR perturbations after collagen gelation (polymerization); reversibility of collagen binding: before vs after collagen gelation
Protocol: Rat collagen hydrogels were prepared using rat-tail collagen type I (at 4 mg/ml in 0.02 N acetic acid) from BD Bioscience. A volume of 200 μL of the concentrated collagen solution was mixed with an equal volume of a buffer solution that was 400 mM in Tris-HCl and 400 mM in NaCl with a pH of 7.6 and with 50 μL of deuterated water (D2O). The sample mixture was transferred to an NMR tube followed by gentle mixing under agitation using a Thermolyne™ Max Mix-II apparatus. The NMR tube containing the collagen solution was placed within the RF probe housed in a 500 MHz super-conducting magnet (Bruker Avance-500 NMR spectrometer). The probe and sample bulk temperature was kept at 277 K for 3 hours and then elevated to 310 K at a rate of 1 degree/10 min to enable fibril alignment during a slow process of collagen gelation under the influence of the magnetic field (Ma 2008). The degree of fibril alignment of the collagen hydrogels was determined by use of deuterium NMR spectroscopy of the added D2O as described (Ma 2008). […]
Randomly-deposited collagen (hydrogel) matrix was prepared following the same procedure as above for partially aligned hydrogels, except that the RF probe and the NMR tube (or test tubes) containing the collagen solution were placed outside the magnetic field. Peptides containing collagen-binding hairpins were introduced into the hydrogels in two ways, the first with the collagen stock solution diluted (50:50 in volume ratio) by the buffer of 400 mM in Tris-HCl and 400 mM in NaCl at pH 7.6 containing the peptides of interest (i.e. for FIGS. 1A & 1D), which gelates in the presence of the added peptide. Alternatively, peptides in an appropriate buffer were introduced to the top of the hydrogel matrix (i.e. for FIGS. 1B & 1C) preformed in the NMR tube (or test tube) following the procedures described above. The behavior of the peptides in the hydrogels was followed by use of NMR H-^15N HSQC spectra for ^15N-labelled peptides (FIG. 1) and/or by use of one-dimensional proton NMR spectroscopy (FIG. 2).
Deuterium NMR spectroscopy studies of collagen responsiveness (and/or binding) for each peptide were carried out using a volume of (400-X) μL of a peptide dissolved in pure water mixed with 50 μL of a 10×PBS (phosphate-buffered saline) supplemented by sodium phosphate to a final concentration of 50 mM, with 50 μL of deuterated water (D2O) to form the reference sample (where X=0), or the peptide-collagen complex with X μL of rat-tail collagen type I (at 3.6 to 4 mg/ml in 0.02 N acetic acid from BD Bioscience) adjusted to achieve the desired final concentration of collagen. The pH value of the reference peptide samples was adjusted to match the pH of the final peptide-collagen complex in order to facilitate NMR spectral comparison. The peptide-collagen solutions were also subjected to gelation under magnetic field guidance followed by the measurement of fibril alignment (Ma 2008) as a semi-quantitative indication of peptide-collagen binding. Deuterium coupling constants measuring the degree of collagen fibril alignment were reduced by more than 1.0 Hz for MH2-wZIP4, by less than 0.5 Hz for MH2-wZIP6 and MH2-wZIP5, which parallel those observed for trpzip4, trpzip6, trpzip5 and the gb1 peptide (see Example 4). As a comparison, a solution of rat collagen at a concentration of 1.8 mg/ml in 200 mM Tris-Cl/200 mM NaCl at pH 7.6 formed a partially-aligned hydrogel with a deuterium coupling constant (Ma, 2008) of 2.5 Hz, while a solution of rat collagen at a concentration of 3 mg/ml in PBS (137 mM NaCl/2.68 mM KCl/10.1 mM Na2HPO4/1.76 mM KH2PO4) supplemented with Na2HPO4 to achieve a final concentration of 50 mM at pH 7.4 formed a partially-aligned hydrogel with a deuterium coupling constant of 4.8 Hz. A solution of human collagen at a concentration of 2.23 mg/ml in PBS supplemented with Na2HPO4 with a final concentration of 50 mM at pH 7.4 formed a partially-aligned hydrogel with a deuterium coupling constant of 1.3 Hz.

[4] = test system: abdominal vena cava injured by FeCl3; settings: I.V. 30 minutes after FeCl3; about 1/4 of the highest FL4247 dose
From the text: The application of ferric chloride on venous and arterial vessels was therefore the method used to produce the inflamed vasculature in the animal model. The carotid artery (arterial model) and the abdominal vena cava (venous model) were the chosen vessels for the imaging experiments with injured blood vessels undergong thrombosis.
The FeCl3 rat venous model of thrombosis was generated as described (Wang 2005) with some modifications. Briefly, rats were anesthetized with a 2.5% isoflurane/oxygen mixture and placed on a heat source (35-37° C.). The vena cava was then exposed via a midline incision and the region between the renal and iliolumbar veins was isolated. One minute after drug administration, a piece of filter paper (Gel Blot Paper, GB003, Whatman, Piscataway, N.J., USA; 7 mm diameter) saturated with 10% FeCl3 (EMD Chemicals Inc., Gibbstown, N.J., USA) was placed on the exposed surface of the vena cava and incubated for 3.5 minutes. During the application of FeCl3, the abdominal region was covered with aluminum foil. At the end of the incubation period, the filter paper was removed and the exposed viscera covered with a saline-soaked gauze.
In these imaging experiments, there were also a 30-minute waiting time after introduction of FeCl3 to the exposed vena cava to ensure the development of substantial vascular injury and the deposition of a thrombus.

[5] = target: T2, rat-tail collagen type I (rat, UniProt P02454 152-1207; P02466 86-1125); test: NMR spectroscopy (Table 4 footnote)
T2 construct: also called type-I collagen; unpolymerized collagen
T2 sequence (P02454 152-1207 limits assumed, chain 1 of 2): as the sequence (P02454 152-1207 limits assumed) above
T2 sequence (P02466 86-1125 limits assumed, chain 2 of 2): as the sequence (P02466 86-1125 limits assumed) above

[6] = target: T2, rat-tail collagen type I; test: cell-based or functional assay

## GEWTYDDATKTFTVTE (gb1 - does not bind collagen) [reference compound]
[1]
  effect on collagen gelation and degree of collagen alignment: remained similar with or without the peptide
[2]
  Tm: about 7 °C
[3]
  response to / binding of collagen (NMR spectral perturbations): no response to collagen; also recorded: little binding capacity; also recorded: does not bind collagen

## IRFDTGEWTWDDATKTWTWTEGDFEEIPEEYLQ (MH2-wZIP4 - molecule of Formula (I))
[1]
  effect on collagen gelation and degree of collagen alignment: most pronounced interference with hydrogel formation by collagen
[1]; gelation under magnetic field guidance
  reduction of deuterium coupling constant measuring the degree of collagen fibril alignment: more than 1.0 Hz
[3]
  NMR perturbations after collagen gelation (polymerization); reversibility of collagen binding: no dramatic impact on resonance perturbations
  response to / binding of collagen (NMR spectral perturbations): most pronounced proton NMR spectral changes; also recorded: highest capacity of binding unpolymerized soluble collagen
[3]; collagenase treatment
  NMR perturbations / release after collagen degradation by a collagenase: releasable by the collagenase; also recorded: highly sensitive to the treatment of a collagenase
[3]; diffused into pre-aligned collagen hydrogels
  entrapment in collagen hydrogel: greatly-reduced entrapment

## GEWTWDDATKTWTVTE (GEWTWDDATKTWTVTE-NH2) [trpzip6, reference compound]
[2]
  Tm: about 45 °C
[3]
  NMR perturbations after collagen gelation (polymerization); reversibility of collagen binding: revert toward those of the free peptides after collagen polymerization
  response to / binding of collagen (NMR spectral perturbations): responded to collagen; also recorded: respond to the presence of collagen

## STWTWNGTNWTRNDGGC-Fluor750 (not fully specified (C-terminus); printed as STWTWNGTNWTRNDGGC-Fluor750; also: HiLyte Fluor750 conjugate) [FL4447]
[4]
  fluorescence at the injured vena cava (whole-body and post-mortem imaging): somewhat reduced level of local fluorescence as compared to FL4247/FL4312

## GEWTYDDATKTFTWTE (GEWTYDDATKTFTWTE-NH2) [trpzip5, reference compound]
[2]
  Tm: about 43 °C
[3]
  NMR perturbations after collagen gelation (polymerization); reversibility of collagen binding: revert toward those of the free peptides after collagen polymerization; also recorded: reverts to a greater extent as compared to trpzip6
  response to / binding of collagen (NMR spectral perturbations): responded to collagen; also recorded: respond to the presence of collagen

## GEWTWDDATKTWTWTE (GEWTWDDATKTWTWTE-NH2) [trpzip4, reference compound]
[1]
  effect on collagen gelation and degree of collagen alignment: significantly reduced degree of collagen alignment
[2]
  Tm: about 70 °C
[3]
  response to / binding of collagen (NMR spectral perturbations): responded to collagen; also recorded: most pronounced changes in response to the presence of collagen; also recorded: dramatically altered by collagen

B1: Y2Y11-trpzip1 (peptide)
peptide: SYTWEGNKWTYK
[5]
  binding result: no binding

B2: MH2-wZIP4 (peptide)
peptide: IRFTDGEWTWDDATKTWTWTEGDFEEIPEEYLQ
[6]
  reduction of the deuterium coupling constant measuring the degree of collagen fibril alignment: > 1 Hz

B3: YWWY-trpzip2 (peptide)
peptide: SYTWENGKWTYK
[5]
  binding result: no binding

B4: W4W9-trpzip2 (peptide)
peptide: SVTWENGKWTVK
[5]
  binding result: no binding

B5: MH2-wZIP5 (peptide)
peptide: GEWTYDDATKTFTWTE
[6]
  reduction of the deuterium coupling constant measuring the degree of collagen fibril alignment: < 0.5 Hz

B6: MH2-wZIP6 (peptide)
peptide: GEWTWDDATKTWTVTE
[6]
  reduction of the deuterium coupling constant measuring the degree of collagen fibril alignment: < 0.5 Hz
